# Values quoted from earlier work in publication PMC5428663, “Identification of small molecule inhibitors of Interleukin-18” (Scientific Reports, 2017).
# Biological target: IL-18 (Homo sapiens) (UniProt Q14116)
# Sequence (Q14116 37-193): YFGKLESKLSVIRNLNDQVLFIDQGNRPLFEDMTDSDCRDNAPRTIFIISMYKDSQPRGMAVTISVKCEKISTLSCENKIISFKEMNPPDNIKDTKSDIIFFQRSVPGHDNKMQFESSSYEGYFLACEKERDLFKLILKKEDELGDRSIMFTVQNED
# IL-18BP, sequence (O95998 31-194): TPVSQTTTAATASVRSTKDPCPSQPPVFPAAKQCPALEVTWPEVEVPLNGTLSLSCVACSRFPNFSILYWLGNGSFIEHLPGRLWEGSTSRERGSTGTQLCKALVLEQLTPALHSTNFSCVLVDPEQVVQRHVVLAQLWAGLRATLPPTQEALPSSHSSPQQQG
substance,measurement,value
IL-18BP (from UniProt O95998),Kd,400 pM
